Assays:
[1] = molecular target: SNAP-25134-197 peptide (human); assay: SPR (BIAcore 3000), peptide amine-coupled to CM5, antibody as analyte, 1:1 fit; first of two runs
[2] = molecular target: SNAP-25134-197 peptide (human); assay: SPR (BIAcore 3000), peptide amine-coupled to CM5, antibody as analyte, 1:1 fit; second of two runs, other chip
[3] = molecular target: SNAP-25134-197 peptide (human); assay: SPR (BIAcore 3000), peptide amine-coupled to CM5, antibody as analyte, 1:1 fit
[4] = molecular target: SNAP-25134-197 peptide (human); assay: SPR (BIAcore 3000); by Table 9 the KD of 1D3B8 is the lower one

B1: α-SNAP-25 monoclonal antibody 2E2A6 (antibody, V domains shown)
VH: QVQLQQSDAELVKPGASVKISCRASGYTFTDHSIHWVKQQPGQGLEWIGYIFPGNGNIEYNDKFKGKATLTADKSSGTAYMQLNSLTSEDSAVYFCKRMGYWGQGTSVTVSS
VL: DVLMTQTPLTLSVTIGQPASISCKSSQSLLYTNGKTYLTWLFQRPGQSPKRLIYLVSELDSGVPDRFSGSGSGTDFTLEITRVEAEDLGVYYCLQSAHFPFTFGSGTKLEIKR
- Kd [1]: 0.09 nM
- koff [1]: 0.000153 s⁻¹
- kon [1]: 1.7e+06 M⁻¹ s⁻¹
- Kd [2]: 0.405 nM
- koff [2]: 6.74e-05 s⁻¹
- kon [2]: 166000 M⁻¹ s⁻¹

B2: α-SNAP-25 monoclonal antibody 3C1A5 (antibody, V domains shown)
VH: QVKLQESGAELVKPGASVKISCKASGYTFTDHSIHWVKQKPGQGLEWIGYLFPGNGNFEYNEKFKGKATLTADKSSSTVYMYLNSLTSEDSAVYFCKRMGYWGQGTTVTVSS
VL: DVVMTQTPLTLSVTIGQPASISCKSSQSLLNTNGKTYLTWLIQRPGQSPQRLIYLVSKLDSGVPDRFSGSGSGTDFTLKISRVEAEDLGVYYCLQSSHFPFTFGSGTKLEIKR
- Kd [3]: 1.33 nM
- koff [3]: 0.000288 s⁻¹
- kon [3]: 217000 M⁻¹ s⁻¹

B3: α-SNAP-25 monoclonal antibody 1D3B8 (antibody, V domains shown)
VH: QVKLQESGAELVKPGASVKISCKASGYIFTDHALHWVRQKPEQGLEWIGYIFPGNGNIEYNEKFKGKATLTADKSSSTAYMQLNSLTSGDSAMYFCKKMDYWGQGTTVTVSS
VL: DVLMTQTPLSLPVSLGDQASISCRSSQSIVHSNGNTYLEWYLQKPGQSPKLLIYKVSNRFSGVPDRFSGSGSGTDFTLKISRVEAEDLGVYYCFQGSHVPPTFGAGTKLELKR
- fold difference of the equilibrium disassociation constant against MC-6050 and MC-6053 [4]: 10 fold
- Kd [3]: 0.05 nM
- koff [3]: 5.78e-05 s⁻¹
- kon [3]: 1.06e+06 M⁻¹ s⁻¹

B4: α-SNAP-25 monoclonal antibody 2C9B10 (antibody, V domains shown)
VH: QVKLQESGAELVKPGASVKISCKASGYTFTDHSIHWVKQKPGQGLEWIGYLFPGNGNFEYNEKFKGKATLTADKSSSTAYMHLNSLTSEDSAVYFCKKMDYWGQGTTVTVSS
VL: DIQMTQSPASLSASVGETVTITCRTTENIYSYFVWSQQRQGKSPQLRVYNAKSLAEGVPSSFNVSVSGTQFSLKINSLQPEDFGTYHCQHHYGTPYTFGGGTRLEIRR
- Kd [3]: 27.1 nM
- koff [3]: 0.000311 s⁻¹
- kon [3]: 11500 M⁻¹ s⁻¹
